In patent US20160031955A1 (INSERM INSTITUT NATIONAL DE LA SANT ET DE LA RECHERCHE M …, published 2016):

Molecular target: T1, endogenous AIF (apoptosis inducing factor) contained in human cell lysates (human, UniProt O95831 55-613, limits assumed)
T1 construct: Endogenous protein in cell lysate; also called AIF contained in the lysate of U2OS cells
Assay: co-immunoprecipitation from human cancer cell lysates

T1 sequence (O95831 55-613 limits assumed): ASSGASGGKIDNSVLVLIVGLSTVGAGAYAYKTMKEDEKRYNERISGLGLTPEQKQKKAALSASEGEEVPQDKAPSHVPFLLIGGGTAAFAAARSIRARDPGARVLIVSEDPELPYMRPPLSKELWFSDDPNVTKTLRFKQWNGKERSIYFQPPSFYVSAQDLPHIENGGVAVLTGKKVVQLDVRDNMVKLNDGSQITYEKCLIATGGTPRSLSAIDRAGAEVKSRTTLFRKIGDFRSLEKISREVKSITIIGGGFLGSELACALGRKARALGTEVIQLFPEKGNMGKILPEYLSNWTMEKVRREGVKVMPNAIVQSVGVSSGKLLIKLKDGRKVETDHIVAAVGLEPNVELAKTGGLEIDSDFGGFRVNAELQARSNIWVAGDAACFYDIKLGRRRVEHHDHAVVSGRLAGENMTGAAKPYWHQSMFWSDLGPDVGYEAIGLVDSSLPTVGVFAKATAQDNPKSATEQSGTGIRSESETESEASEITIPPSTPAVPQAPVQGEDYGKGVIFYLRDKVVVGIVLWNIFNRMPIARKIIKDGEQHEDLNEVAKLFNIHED

binding result: no binding
B1: CHCHD3 (other, human, UniProt Q9NX63 2-227, looked up)
chain: GGTTSTRRVTFEADENENITVVKGIRLSENVIDRMKESSPSGSKSQRYSGAYGASVSDEELKRRVAEELALEQAKKESEDQKRLKQAKELDRERAAANEQLTRAILRERICSEEERAKAKHLARQLEEKDRVLKKQDAFYKEQLARLEERSSEFYRVTTEQYQKAAEEVEAKFKRYESHPVCADLQAKILQCYRENTHQTLKCSALATQYMHCVNHAKQSMLEKGG
notes: also called a MIA40 family member
